Results: US20250027068

Molecular target: pooled human IgG (human IgG1,2,3 and 4)

| Protein | Enzyme Activity Endpoint Assay: Fab'2 [ng/µL] | Enzyme Activity Endpoint Assay: Fc [ng/µL] | Enzyme Activity Endpoint Assay: IgG [ng/µL] | Enzyme Activity Endpoint Assay: scIgG [ng/µL] |
| --- | --- | --- | --- | --- |
| PRT-189 (protein) MANQEIRYSEVTPYHVTSVWTKGVTPPDHDFANFTQGEDVFHAPYVANQGWYDITKTFNGKDDLLCGAATAGNMLHWWFDQNKDQIKRYLEEHPEKQKINFNGEQMFDVKEAIDTKNHQLDSKLFEYFKEKAFPYLSTKHLGVFPDHVIDMFINGYRLSLTNHGPTPVKEGSKDPRGGIFDAVFTRGDQSKLLTSRHDFKEKNLKEISDLIKKELTEGKALGLSHTYANVRINHVINLWGADFDSNGNLKAIYVTDSDSNASIGMKKYFVGVNSAGKVAISAKEIKEDNIGAQVLGLFTLSTGQDSWNQTN | 469 | 307 | 0 | 101 |
| PRT-190 (protein) MANQEIRYSEVTPYHVTSVWTKGVTPPDHDFRKIVDGEDVFHAPYVANQGWYDITKTFNGKDDLLCGAATAGNMLHWWFDQNKDQIKRYLEEHPEKQKINFNGEQMFDVKEAIDTKNHQLDSKLFEYFKEKAFPYLSTKHLGVFPDHVIDMFINGYRLSLTNHGPTPVKEGSKDPRGGIFDAVFTRGDQSKLLTSRHDFKEKNLKEISDLIKKELTEGKALGLSHTYANVRINHVINLWGADFDSNGNLKAIYVTDSDSNASIGMKKYFVGVNSAGKVAISAKEIKEDNIGAQVLGLFTLSTGQDSWNQTN | 323 | 278 | 76 | 145 |
| PRT-183 (protein) MRNATEAYAKEVPHQVTSVWTKGVTPPANFTQGEDVFHAPYVANQGWYDITKTFNGKDDLLCGAATAGNMLHWWFDQNKDQIKRYLEEHPEKQKINFNGEQMFDVKEAIDTKNHQLDSKLFEYFKEKAFPYLSTKHLGVFPDHVIDMFINGYRLSLTNHGPTPVKEGSKDPRGGIFDAVFTRGDQSKLLTSRHDFKEKNLKEISDLIKKELTEGKALGLSHTYANVRINHVINLWGADFDSNGNLKAIYVTDSDSNASIGMKKYFVGVNSAGKVAISAKEIKEDNIGAQVLGLFTLSTGQDSWNQTN | 630 | 175 | 0 | 0 |
| PRT-187 (protein) MANQEIRYSEVTPYHVTSVWTKGVTPPADFTYGEDVFHAPYVANQGWYDITKTFNGKDDLLCGAATAGNMLHWWFDQNKEQIEKYLKKHPEKQKIMFGDQELLDVRKVINTKGSQTNSELFNYFRDKAFPGLSARRLGVMPDLVLDMFINGYYLNVYKTQTTDVNRTYQEKDKRGGIFDAVFTRGDQSKLLTSRHDFKEKNLKEISDLIKQELTEGKALGLSHTYANVRINHVINLWGADFDSNGNLKAIYVTDSDSNASIGMKKYFVGVNSAGKVAISAKEIKEDNIGAQVLGLFTLSTGQDIWNQTN | 265 | 307 | 115 | 103 |
| PRT-186 (protein) MANQEIRYSEVTPYHVTSVWTKGVTPPANFRKIVDGNIAYYHAPYVANQGWYDITKTFNGKDDLLCGAATAGNMLHWWFDQNKDQIKRYLEEHPEKQKINFNGEQMFDVKEAIDTKNHQLDSKLFEYFKEKAFPYLSTKHLGVFPDHVIDMFINGYRLSLTNHGPTPVKEGSKDPRGGIFDAVFTRGDQSKLLTSRHDFKEKNLKEISDLIKKELTEGKALGLSHTYANVRINHVINLWGADFDSNGNLKAIYVTDSDSNASIGMKKYFVGVNSAGKVAISAKEIKEDNIGAQVLGLFTLSTGQDSWNQTN | 646 | 218 | 9 | 0 |
| PRT-192 (protein) MANQEIRYSEVTPYHVTSVWTKGVTPPANFTQGEDVFHAPYVANQGWYDITKTFNGKDDLLCGAATAGNMLHWWFDQNKDQIKRYLEEHPEKQKINFNGEQMFDVKEAIDTKNHQLDSKLFEYFKEKAFPYLSTKHLGVFPDHVIDMFINGYRLSLTNHGPTPVKEGSKDPRGGIFDAVFTRGDQSKLLTSRHDFKEKNLKEISDLIKKELTEGKALGLSHTYANVRINHVINLWGADFDSNGNLKAIYVTDSDDKKLTISNASIGMKKYFVGVNSAGKVAISAKEIKEDNIGAQVLGLFTLSTGQDSWNQTN | 24 | 204 | 109 | 461 |
| PRT-188 (protein) MANQEIRYSEVTPYHVTSVWTKGVTPPANFRKIVDGNIAYYAAPYVANQGWYDITKTFNGKDDLLCGAATAGNMLHWWFDQNKDQIKRYLEEHPEKQKINFNGEQMFDVKELNTYESDHGYRDKSKLFEYFKEKAFPYLSTKHLGVFPDHVIDMFINGYRLSLTNHGPTPVKEGSKDPRGGIFDAVFTRGDQSKLLTSRHDFKEKNLKEISDLIKKELTEGKALGLSHTYANVRINHVINLWGADFDSNGNLKAIYVTDSDDKKLTIGDERIGMKKYFVGVNSAGKVAISAKEIKEDNIGAQVLGLFTLSTGQDSWNQTN | 0 | 40 | 905 | 25 |
| PRT-191 (protein) MANQEIRYSEVTPYHVTSVWTKGVTPPANFTQGEDVFHAPYVANQGWYDITKTFNGKDDLLCGAATAGNMLHWWFDQNKDQIKRYLEEHPEKQKINFNGEQMFDVKEAIDTKNHQLDSKLFEYFKEKAFPYLSTKHLGVFPDHVIDMFINGYRLSLTNHGPTPVKEGSKDPRGGIFDAVFTRGDQSKLLTSRHDFKEKNLKEISDLIKKELTEGKALGLSHTYANVRHSINHVINLWGADFDSNGNLKAIYVTDSDSNASIGMKKYFVGVNSAGKVAISAKEIKEDNIGAQVLGLFTLSTGQDSWNQTN | 36 | 183 | 161 | 358 |
| PRT-179 (protein) MANQEIRYSEVTPYHVTSVWTKGVTPPANFTQGEDVFHAPYVANQGWYDITKTFNGKDDLLCGAATAGNMLHWWFDQNKDQIKRYLEEHPEKQKINFNGEQMFDVKEAIDTKNHQLDSKLFEYFKEKAFPYLSARQLGVFPDHVIDMFINGYRLSLTNHGPTPVKEGSKDPRGGIFDAVFTRGDQSKLLTSRHDFKEKNLKEISDLIKKELTEGKALGLSHTYANVRINHVINLWGADFDSNGNLKAIYVTDSDSNASIGMKKYFVGVNSAGKVAISAKEIKEDNIGAQVLGLFTLSTGQDSWNQTN | 697 | 187 | 0 | 0 |
| PRT-184 (protein) MANQEIRYSEVTPYHVTSVWTKGVTPPANFTQGEDVFHAPYVANQGWYDITKTFNGKDDLLCGAATAGNMLHWWFDQNKDQIKRYLEEHPEKQKINFNGEQMFDVKEAIDTKNHQLDSKLFEYFKEKAFPYLSTKHLGVFPDHVIDMFINGYRLSLTNHGPTPVKEGSKDPRGGIFDAVFTRGDQSKLLTSRHDFKEKNLKEISDLIKKELTEGKALGLSHTYANVRINHVINLWGADFDSNGNLKAIYVTDSDSNASIGMKKYFVGVNSAGKVAISAKEIKEDNIGAQVLGLFTLSTGQDSWQKLS | 629 | 165 | 0 | 0 |
| PRT-181 (protein) MANQEIRYSEVTPYHVTSVWTKGVTPPANFTQGEDVFHAPYVANQGWYDITKTFNGKDDLLCGAATAGNMLHWWFDQNKDQIKRYLEEHPEKQKINFNGEQMFDVKEAIDTKNHQLDSKLFEYFKEKAFPYLSTKHLGVFPDHVIDMFINGYRLSLTNHGPTPVKEGSKDPRGGIFDAVFTRGDQSKLLTSRHDLKNKNLKEISDLIKKELTEGKALGLSHTYANVRINHVINLWGADFDSNGNLKAIYVTDSDSNASIGMKKYFVGVNSAGKVAISAKEIKEDNIGAQVLGLFTLSTGQDSWNQTN | 890 | 217 | 24 | 0 |
| PRT-182 (protein) MANQEIRYSEVTPYHVTSVWTKGVTPPANFTQGEDVFHAPYVANQGWYDITKTFNGKDDLLCGAATAGNMLHWWFDQNKDQIKRYLEEHPEKQKINFNGEQMFDVKEAIDTKNHQLDSKLFEYFKEKAFPYLSTKHLGVFPDHVIDMFINGYRLSLTNHGPTPVKEGSKDPRGGIFDAVFTRGDQSKLLTSRHDFKEKNLKEISDLIKKELTEGKALGLSHTYANVRINHVINLWGADFDSNGNLKAIYVTDSDSNASIGMKKYFVGVNSAGKVAISAKKIKEDNIGAQVLGLFTLSTGQDSWNQTN | 563 | 167 | 0 | 27 |
| PRT-180 (protein) MANQEIRYSEVTPYHVTSVWTKGVTPPANFTQGEDVFHAPYVANQGWYDITKTFNGKDDLLCGAATAGNMLHWWFDQNKDQIKRYLEEHPEKQKINFNGEQMFDVKEAIDTKNHQLDSKLFEYFKEKAFPYLSTKHLGVFPDHVIDMFINGYRLSLTNTQSTDVNEGSKDPRGGIFDAVFTRGDQSKLLTSRHDFKEKNLKEISDLIKKELTEGKALGLSHTYANVRINHVINLWGADFDSNGNLKAIYVTDSDSNASIGMKKYFVGVNSAGKVAISAKEIKEDNIGAQVLGLFTLSTGQDSWNQTN | 690 | 197 | 0 | 0 |
| PRT-185 (protein) MANQEIRYSEVTPYHVTSVWTKGVTPPANFRQGEDVFAAPYVANQGWYDITKTFNGKDDLLCGAATAGNMLHWWFDQNKDQIKRYLEEHPEKQKINFNGEQMFDVKELNTYESDHGYRDKSKLFEYFKEKAFPYLSTKHLGVFPDHVIDMFINGYRLSLTNHGPTPVKEGSKDPRGGIFDAVFTRGDQSKLLTSRHDFKEKNLKEISDLIKKELTEGKALGLSHTYANVRINHVINLWGADFDSNGNLKAIYVTDSDDKKLTIGDERIGMKKYFVGVNSAGKVAISAKEIKEDNIGAQVLGLFTLSTGQDSWNQTN | 0 | 45 | 365 | 152 |
